{"source": "paper PMC6985046", "key": {"[1]": {"target": "Remicade Fab fragment (sourced from the European Union market) (mouse/human chimeric)", "experiment": "AUC"}, "[2]": {"target": "PF-06438179/GP1111 Fab fragment (mouse/human chimeric)", "experiment": "AUC"}}, "data": [{"substance": "Remicade Fab fragment (sourced from the European Union market)", "values": [{"measurement": "Kd", "setting": "[1]", "value": 23, "unit": "µM"}]}, {"substance": "PF-06438179/GP1111 Fab fragment", "values": [{"measurement": "stoichiometry N", "setting": "[2]", "value": 2}]}]}
